Test results as given in patent US20200222478A1 (published 2020).

Experiments:
Test in all cases: UV peptide exchange + HLA class I ELISA
HLA-A*01:01 = target: T1, HLA-A*01:01 (human, biotinylated heavy chain)
T1 construct: Conditional HLA class I complex first loaded with a UV-labile peptide, which is cleaved by UV and exchanged for the test peptide; captured on streptavidin by its biotinylated heavy chain; also called conditional HLA class I complex
Procedure: (§1) The HLA class I ELISA is an enzyme immunoassay based on the detection of beta2-microglobulin (B2M) of (peptide-stabilized) HLA class I complexes. To this end streptavidin was bound onto polystyrene microtiter wells. […] Non-bound material was removed by washing. Subsequently, horseradish peroxidase (HRP)-conjugated antibody to human B2M was added. […] In the latter case B2M was removed during the washing step. After removal of non-bound HRP conjugate by washing, a substrate solution was added to the wells. A coloured product formed in proportion to the amount of intact HLA complex present in the samples. After the reaction was terminated by the addition of a stop solution, absorbance was measured in a microtiter plate reader.

HLA-A*02:01 = target: T2, HLA-A*02:01 (human, biotinylated heavy chain)
T2 construct: Conditional HLA class I complex first loaded with a UV-labile peptide, exchanged for the test peptide after UV; also called conditional HLA class I complex
Procedure: as §1

HLA-A*03:01 = target: T3, HLA-A*03:01 (human, biotinylated heavy chain)
T3 construct: Conditional HLA class I complex first loaded with a UV-labile peptide, exchanged for the test peptide after UV; also called conditional HLA class I complex
Procedure: as §1

HLA-A*24:02 = target: T4, HLA-A*24:02 (human, biotinylated heavy chain)
T4 construct: Conditional HLA class I complex first loaded with a UV-labile peptide, exchanged for the test peptide after UV; also called conditional HLA class I complex
Procedure: as §1

HLA-B*07:02 = target: T5, HLA-B*07:02 (human, biotinylated heavy chain)
T5 construct: Conditional HLA class I complex first loaded with a UV-labile peptide, exchanged for the test peptide after UV; also called conditional HLA class I complex
Procedure: as §1

HLA-B*08:01 = target: T6, HLA-B*08:01 (human, biotinylated heavy chain)
T6 construct: Conditional HLA class I complex first loaded with a UV-labile peptide, exchanged for the test peptide after UV; also called conditional HLA class I complex
Procedure: as §1

Row | Binder | exchange rate vs Pos peptide (HLA-A*01:01) | exchange rate vs Pos peptide (HLA-A*02:01) | exchange rate vs Pos peptide (HLA-A*03:01) | exchange rate vs Pos peptide (HLA-A*24:02) | exchange rate vs Pos peptide (HLA-B*07:02) | exchange rate vs Pos peptide (HLA-B*08:01)
1 | STRRAVRRM (Synthetic 9-mer fragment) [P16 9-mer peptide (MSMB-NCOA4 fusion)] | 5.5% | 10.4% | 6.1% | 0.8% | 13.7% | 6.2%
2 | FFKRAAEGF [P77 9-mer peptide (AR-V3 splice variant)] | 1.9% | – | 2.8% | 1.7% | 14.2% | 3.4%
3 | FPVGAEGTF [P27 9-mer peptide (FAM126B-ORC2 fusion)] | 4.8% | 10% | 4.5% | 0.7% | 7.8% | 6.4%
4 | NSKMALNSL [P35 9-mer peptide (TMPRSS2-ERG fusion)] | 2.5% | 12.5% | 4.2% | 0.2% | 12.1% | 13.7%
5 | GVLRRLLCR [P37 9-mer peptide (TSTD1-F11R fusion)] | 1.4% | 12.5% | 6.4% | -0.1% | – | 3.3%
6 | IQYSCMGLM [P50 9-mer peptide (AR (W742C))] | 2.3% | 8.8% | 5.5% | 0.1% | 10.4% | 4.7%
7 | NMVENGCYL [P59 9-mer peptide (FOXA1 (F254V))] | 2.2% | 11.9% | 4.5% | -0.5% | 7.5% | 5.5%
